Test results published in patent publication US7485456 (YEDA RESEARCH AND DEVELOPMENT, dated 2009).

B1: intracellular domain of the p75 TNF receptor (receptor, UniProt P20333 288-461, looked up)
chain: KKKPLCLQREAKVPHLPADKARGTQGPEQQHLLITAPSSSSSSLESSASALDRRAPTRNQPQAPGVEASGAGEARASTGSSDSSPGGHGTQVNVTCIVNVCSSSDHSSQCSSQASSTMGDTDSSPSESPKDEQVPFSKEECAFRSQLETPETLLGSTEEKPLPLGVPDAGMKPS
notes: domain: intracellular domain; Two-hybrid construct; also called p75-IC
B2: intracellular domain of the p55 TNF receptor (receptor, UniProt P19438 235-455, looked up)
chain: RYQRWKSKLYSIVCGKSTPEKEGELEGTTTKPLAPNPSFSPTPGFTPTLGFSPVPSSTFTSSSTYTPGDCPNFAAPRREVAPPYQGADPILATALASDPIPNPLQKWEDSAHKPQSLDTDDPATLYAVVENVPPLRWKEFVRRLGLSDHEIDRLELQNGRCLREAQYSMLATWRRRTPRREATLELLGRVLRDMDLLGCLEDIEEALCGPAALPPAPSLLR
notes: domain: intracellular domain; Two-hybrid construct; also called p55-IC
B3: intracellular domain of the FAS/APO1 (CD95 receptor) (receptor, UniProt P25445 191-335, looked up)
chain: KRKEVQKTCRKHRKENQGSHESPTLNPETVAINLSDVDLSKYITTIAGVMTLSQVKGFVRKNGVNEAKIDEIKNDNVQDTAEQKVQLLRNWHQLHGKKEAYDTLIKDLKKANLCTLAEKIQTIILKDITSDSENSNFRNEIQSLV
notes: domain: intracellular domain; Two-hybrid construct
B4: RIP (other, UniProt Q13546 1-671, looked up)
chain: MQPDMSLNVIKMKSSDFLESAELDSGGFGKVSLCFHRTQGLMIMKTVYKGPNCIEHNEALLEEAKMMNRLRHSRVVKLLGVIIEEGKYSLVMEYMEKGNLMHVLKAEMSTPLSVKGRIILEIIEGMCYLHGKGVIHKDLKPENILVDNDFHIKIADLGLASFKMWSKLNNEEHNELREVDGTAKKNGGTLYYMAPEHLNDVNAKPTEKSDVYSFAVVLWAIFANKEPYENAICEQQLIMCIKSGNRPDVDDITEYCPREIISLMKLCWEANPEARPTFPGIEEKFRPFYLSQLEESVEEDVKSLKKEYSNENAVVKRMQSLQLDCVAVPSSRSNSATEQPGSLHSSQGLGMGPVEESWFAPSLEHPQEENEPSLQSKLQDEANYHLYGSRMDRQTKQQPRQNVAYNREEERRRRVSHDPFAQQRPYENFQNTEGKGTAYSSAASHGNAVHQPSGLTSQPQVLYQNNGLYSSHGFGTRPLDPGTAGPRVWYRPIPSHMPSLHNIPVPETNYLGNTPTMPFSSLPPTDESIKYTIYNSTGIQIGAYNYMEIGGTSSSLLDSTNTNFKEEPAAKYQAIFDNTTSLTDKHLDPIRENLGKHWKNCARKLGFTQSQIDEIDHDYERDGLKEKVYQMLQKWVMREGIKGATVGKLAQALHQCSRIDLLSSLIYVSQN
notes: Two-hybrid construct
B5: intracellular domain of the CD40 receptor (receptor, UniProt P25942 216-277, looked up)
chain: KKVAKKPTNKAPHPKQEPQEINFPDDLPGSNTAAPVQETLHGCQPVTQEDGKESRISVQERQ
notes: as for B3
B6: TRADD (other, UniProt Q15628 1-312, looked up)
chain: MAAGQNGHEEWVGSAYLFVESSLDKVVLSDAYAHPQQKVAVYRALQAALAESGGSPDVLQMLKIHRSDPQLIVQLRFCGRQPCGRFLRAYREGALRAALQRSLAAALAQHSVPLQLELRAGAERLDALLADEERCLSCILAQQPDRLRDEELAELEDALRNLKCGSGARGGDGEVASAPLQPPVPSLSEVKPPPPPPPAQTFLFQGQPVVNRPLSLKDQQTFARSVGLKWRKVGRSLQRGCRALRDPALDSLAYEYEREGLYEQAFQLLRRFVQAEGRRATLQRLVEALEENELTSLAEDLLGLTDPNGGLA
notes: Two-hybrid construct
B7: TRAF3 (other, UniProt Q13114 1-568, looked up)
chain: MESSKKMDSPGALQTNPPLKLHTDRSAGTPVFVPEQGGYKEKFVKTVEDKYKCEKCHLVLCSPKQTECGHRFCESCMAALLSSSSPKCTACQESIVKDKVFKDNCCKREILALQIYCRNESRGCAEQLMLGHLLVHLKNDCHFEELPCVRPDCKEKVLRKDLRDHVEKACKYREATCSHCKSQVPMIALQKHEDTDCPCVVVSCPHKCSVQTLLRSELSAHLSECVNAPSTCSFKRYGCVFQGTNQQIKAHEASSAVQHVNLLKEWSNSLEKKVSLLQNESVEKNKSIQSLHNQICSFEIEIERQKEMLRNNESKILHLQRVIDSQAEKLKELDKEIRPFRQNWEEADSMKSSVESLQNRVTELESVDKSAGQVARNTGLLESQLSRHDQMLSVHDIRLADMDLRFQVLETASYNGVLIWKIRDYKRRKQEAVMGKTLSLYSQPFYTGYFGYKMCARVYLNGDGMGKGTHLSLFFVIMRGEYDALLPWPFKQKVTLMLMDQGSSRRHLGDAFKPDPNSSSFKKPTGEMNIASGCPVFVAQTVLENGTYIKDDTIFIKVIVDTSDLPDP
notes: Two-hybrid construct
B8: MORT1 (other, UniProt Q13158 1-208, looked up)
chain: MDPFLVLLHSVSSSLSSSELTELKFLCLGRVGKRKLERVQSGLDLFSMLLEQNDLEPGHTELLRELLASLRRHDLLRRVDDFEAGAAAGAAPGEEDLCAAFNVICDNVGKDWRRLARQLKVSDTKIDSIEDRYPRNLTERVRESLRIWKNTEKENATVAHLVGALRSCQMNLVADLVQEVQQARDLQNRSGAMSPMSWNSDASTSEAS
notes: Two-hybrid construct; also called FADD; MORT1/FADD
B9: construct of the N-terminal part of the TRAF2 molecule, amino-acids 1 to 221 (two-hybrid bait) (other)
chain: MAAASVTPPGSLELLQPGFSKTLLGTKLEAKYLCSACRNVLRRPFQAQCGHRYCSFCLASILSSGPQNCAACVHEGIYEEGISILESSSAFPDNAARREVESLPAVCPSDGCTWKGTLKEYESCHEGRCPLMLTECPACKGLVRLGEKERHLEHECPERSLSCRHCRAPCCGADVKAHHEVCPKFPLTCDGCGKKKIPREKFQDHVKTCGKCRVPCRFHAI
notes: Includes the Ring finger and zinc finger motifs; served as bait in two hybrid tests (fusion partner not spelled out for this construct); also called TRAF2 1-221
B10: construct of the C-terminal part of the TRAF2 molecule, amino acids 222 to 501 (two-hybrid bait) (other)
chain: GCLETVEGEKQQEHEVQWLREHLAMLLSSVLEAKPLLGDQSHAGSELLQRCESLEKKTATFENIVCVLNREVERVAMTAEACSRQHRLDQDKIEALSSKVQQLERSIGLKDLAMADLEQKVLEMEASTYDGVFIWKISDFARKRQEAVAGRIPAIFSPAFYTSRYGYKMCLRIYLNGDGTGRGTHLSLFFVVMKGPNDALLRWPFNQKVTLMLLDQNNREHVIDAFRPDVTSSSFQRPVNDMNIASGCPLFCPVSKMEAKNSYVRDDAIFIKAIVDLTGL
notes: Covers the TRAF-domain and additional 42 amino acids; served as bait in two hybrid tests (fusion partner not spelled out for this construct); also called TRAF2 222-501; C-terminal construct comprising the TRAF domain
B11: TRAF2 cDNA clones picked from the human B-cell library (two-hybrid prey, GAL4 activation domain fusion) (other, not shown: large carriers)
chain: MAAASVTPPGSLELLQPGFSKTLLGTKLEAKYLCSACRNVLRRPFQAQCGHRYCSFCLASILSSGPQNCAACVHEGIYEEGISILESSSAFPDNAARREVESLPAVCPSDGCTWKGTLKEYESCHEGRCPLMLTECPACKGLVRLGEKERHLEHECPERSLSCRHCRAPCCGADVKAHHEVCPKFPLTCDGCGKKKIPREKFQDHVKTCGKCRVPCRFHAIGCLETVEGEKQQEHEVQWLREHLAMLLSSVLEAKPLLGDQSHAGSELLQRCESLEKKTATFENIVCVLNREVERVAMTAEACSRQHRLDQDKIEALSSKVQQLERSIGLKDLAMADLEQKVLEMEASTYDGVFIWKISDFARKRQEAVAGRIPAIFSPAFYTSRYGYKMCLRIYLNGDGTGRGTHLSLFFVVMKGPNDALLRWPFNQKVTLMLLDQNNREHVIDAFRPDVTSSSFQRPVNDMNIASGCPLFCPVSKMEAKNSYVRDDAIFIKAIVDLTGL
B12: protein encoded by new clone number 10, partial NIK (NIK 624-947) (two-hybrid prey, GAL4 activation domain fusion) (enzyme, not shown: large carriers)
chain: PLTAQAIQEGLRKEPIHRVSAAELGGKVNRALQQVGGLKSPWRGEYKEPRHPPPNQANYHQTLHAQPRELSPRAPGPRPAEETTGRAPKLQPPLPPEPPEPNKSPPLTLSKEESGMWEPLPLSSLEPAPARNPSSPERKATVPEQELQQLEIELFLNSLSQPFSLEEQEQILSCLSIDSLSLSDDSEKNPSKASQSSRDTLSSGVHSWSSQAEARSSSWNMVLARGRPTDTPSYFNGVKVQIQSLNGEHLHIREFHRVKVGDIATGISSQIPAAAFSLVTKDGQPVRYDMEVPDSGIDLQCTLAPDGSFAWSWRVKHGQLENRP
notes: also called clone 10; NMPI
B13: Lymphotoxin beta receptor cDNA clones picked from the human B-cell library (two-hybrid prey, GAL4 activation domain fusion) (receptor, UniProt P36941 249-435, looked up, not shown: large carriers)
chain: KSHPSLCRKLGSLLKRRPQGEGPNPVAGSWEPPKAHPYFPDLVQPLLPISGDVSPVSTGLPAAPVLEAGVPQQQSPLDLTREPQLEPGEQSQVAHGTNGIHVTGGSMTITGNIYIYNGPVLGGPPGPGDLPATPEPPYPIPEEGDPGPPGLSTPHQEDGKAWHLAETEHCGATPSNRGPRNQFITHD

Each binder was assayed against full-length NIK (NF-kB inducing kinase) (human, UniProt Q99558 1-947) (assay: yeast two-hybrid (results not shown)).

| Binder | binding result |
| --- | --- |
| B1 | no binding |
| B2 | no binding |
| B3 | no binding |
| B4 | no binding |
| B5 | no binding |
| B6 | no binding |
| B7 | no binding |
| B8 | no binding |

Each binder was assayed against B12 (assay: yeast two-hybrid, TRAF2 1-221 as bait).
From the text: (§1) In order to narrow down the region on TRAF2 molecule which interact with clones 9, 10 and 15, two additional constructs were made. One construct comprised of the N-terminal part of the TRAF2 molecule, amino-acids 1 to 221, that included the Ring finger and the zinc finger motifs. The second construct included only the C-terminal part of the molecule, amino acids 222 to 501, covering the "TRAF-domain" and additional 42 amino acids. These two constructs were served as baits in two hybrid tests.

| Binder | binding result |
| --- | --- |
| B9 | no binding |

The binders below were run against B12 (assay: yeast two-hybrid, TRAF2 222-501 as bait).
From the text: as §1

| Binder | binding result |
| --- | --- |
| B10 | binds |

These binders were tested against B12 (assay: yeast two-hybrid specificity test with irrelevant baits).

| Binder | binding result |
| --- | --- |
| B1 | no binding |
| B2 | no binding |
| B8 | no binding |

The binders below were run against T1, human TRAF2 in pGBT9 vector in conjunction with GAL4 DNA binding domain (two-hybrid bait) (human, UniProt P04386 1-147 (Saccharomyces cerevisiae entry)) (assay: yeast two-hybrid with TRAF2 bait, lacZ (beta-galactosidase) colour development time).
T1 construct: Cloned by PCR from the first methionine to the stop codon; a short linker from the BamHI primer between GAL4 domain and TRAF2 is not spelled out; also called hTRAF2; full length TRAF2 molecule
Procedure: Positive clones picked up in the two hybrid screen were subjected to lacZ color development test in SFY526 yeast cells, following Clontech Laboratories' manual (for details see above mentioned publications and patent applications). In brief, transformants were allowed to grow at 30° C. for 2-4 days until reaching about 2 mm in diameter, then were transferred onto Whatman filters. The filters went through a freeze/thaw treatment in order to permeabilize the cells, then soaked in a buffer (16.1 mg/ml Na_2HPO_4.7H_2O; 5.5 mg/ml NaH_2PO_4.H_2O; 0.75 mg/ml KCl; 0.75 mg/ml MgSO_4.7H_2O, pH=7) containing 0.33 mg/ml X-gal and 0.35 mM β-mercaptoethanol. Colonies were monitored for development of blue color which is an indication for induction of β-galactosidase.
The screen yielded approximately 2000 clones which were able to grow on Trp-, Leu-, His-3AT plates. DNA prepared from 165 randomly selected positive clones served for transient co-transfection of SFY526 yeast strain together with TRAF2 cloned into pGBT9 vector. Assay for β-galactosidase activity was performed on the transformed SFY526 yeast colonies as described in Materials and Methods (v). The blue color that developed was an indication for yeast colonies that contain cDNA encoding a protein or polypeptide that binds to TRAF2.

| Binder | Color test [min] |
| --- | --- |
| B11 | 10 |
| B12 | 15 |
| B13 | 10 |
